Non-standard residues stand in square brackets, D forms with d. No end group written: not given here. pY = N[C@@H](Cc1ccc(OP(=O)(O)O)cc1)C(=O)O; pT = C[C@@H](OP(=O)(O)O)[C@H](N)C(=O)O
T1: human F-box protein FBP2 (human, UniProt Q9UKT8 1-419, limits assumed)
T1 sequence: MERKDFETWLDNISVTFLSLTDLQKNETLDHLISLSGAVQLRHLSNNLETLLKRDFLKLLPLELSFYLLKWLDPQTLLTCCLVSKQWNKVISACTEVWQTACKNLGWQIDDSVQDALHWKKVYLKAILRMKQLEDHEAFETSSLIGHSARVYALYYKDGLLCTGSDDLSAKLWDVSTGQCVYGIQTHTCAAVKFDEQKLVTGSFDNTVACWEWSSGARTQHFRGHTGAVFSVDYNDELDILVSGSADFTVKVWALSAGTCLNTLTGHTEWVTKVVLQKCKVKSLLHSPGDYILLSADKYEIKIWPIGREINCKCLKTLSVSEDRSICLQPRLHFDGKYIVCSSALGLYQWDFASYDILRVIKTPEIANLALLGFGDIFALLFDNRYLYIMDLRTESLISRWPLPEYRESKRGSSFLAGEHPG

T2: human F-box protein FBP1 (human, UniProt Q9Y297 1-605)
T2 sequence: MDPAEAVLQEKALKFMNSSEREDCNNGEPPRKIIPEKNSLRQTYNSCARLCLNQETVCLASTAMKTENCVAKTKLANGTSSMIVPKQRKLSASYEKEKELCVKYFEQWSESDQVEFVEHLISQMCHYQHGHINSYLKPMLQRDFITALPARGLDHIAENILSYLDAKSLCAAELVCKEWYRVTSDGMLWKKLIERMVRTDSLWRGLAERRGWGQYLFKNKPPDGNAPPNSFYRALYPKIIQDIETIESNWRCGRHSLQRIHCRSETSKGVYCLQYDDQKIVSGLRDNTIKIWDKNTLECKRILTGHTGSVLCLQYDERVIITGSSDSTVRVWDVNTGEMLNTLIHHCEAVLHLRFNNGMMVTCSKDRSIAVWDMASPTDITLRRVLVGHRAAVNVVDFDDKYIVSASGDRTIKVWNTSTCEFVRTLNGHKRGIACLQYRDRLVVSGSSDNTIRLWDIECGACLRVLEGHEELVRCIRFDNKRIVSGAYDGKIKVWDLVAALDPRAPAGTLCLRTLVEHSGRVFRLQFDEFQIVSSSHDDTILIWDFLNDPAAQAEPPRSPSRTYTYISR

T3: human F-box protein FBP5 (human, UniProt Q9UKT4 1-447)
T3 construct: Gal4 AD fusion in the two-hybrid screen; the clone appeared to be full length
T3 sequence: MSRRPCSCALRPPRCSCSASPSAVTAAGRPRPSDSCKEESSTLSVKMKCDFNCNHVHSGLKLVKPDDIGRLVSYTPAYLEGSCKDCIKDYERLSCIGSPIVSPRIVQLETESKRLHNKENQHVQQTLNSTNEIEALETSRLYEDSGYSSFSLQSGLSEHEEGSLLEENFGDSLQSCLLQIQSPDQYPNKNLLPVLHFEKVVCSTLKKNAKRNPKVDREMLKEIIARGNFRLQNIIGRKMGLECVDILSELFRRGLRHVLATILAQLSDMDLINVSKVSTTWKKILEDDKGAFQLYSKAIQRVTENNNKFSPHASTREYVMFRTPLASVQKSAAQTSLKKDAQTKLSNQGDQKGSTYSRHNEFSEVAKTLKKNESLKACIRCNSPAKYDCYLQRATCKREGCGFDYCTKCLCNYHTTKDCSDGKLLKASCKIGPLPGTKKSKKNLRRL

T4: human F-box protein FBP3a (human, UniProt Q9UKT7 1-428)
T4 sequence: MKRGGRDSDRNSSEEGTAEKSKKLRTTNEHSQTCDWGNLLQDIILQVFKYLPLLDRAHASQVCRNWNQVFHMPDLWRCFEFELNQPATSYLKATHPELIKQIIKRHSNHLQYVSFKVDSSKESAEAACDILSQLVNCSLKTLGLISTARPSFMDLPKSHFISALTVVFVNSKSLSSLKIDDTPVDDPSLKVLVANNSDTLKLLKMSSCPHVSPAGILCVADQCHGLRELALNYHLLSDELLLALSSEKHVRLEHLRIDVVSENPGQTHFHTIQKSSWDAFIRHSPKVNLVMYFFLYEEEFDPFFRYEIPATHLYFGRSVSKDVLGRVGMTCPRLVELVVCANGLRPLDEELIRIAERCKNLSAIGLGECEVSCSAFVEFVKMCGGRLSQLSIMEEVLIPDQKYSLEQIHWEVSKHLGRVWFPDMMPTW

B1: control phospho-peptide AEIGVGAY*GTVYKARDPHS of human Cdk4 (peptide)
peptide: AEIGVGA[pY]GTVYKARDPHS
notes: Coupled to beads; also called unrelated phospho-peptide
B2: phospho-p27 peptide NAGSVEQT*PKKPGLRRRQT (peptide)
peptide: NAGSVEQ[pT]PKKPGLRRRQT
notes: Coupled to Sepharose beads; 19 C-terminal residues of p27; also called phospho-T187 p27 peptide; p27 phosphopeptide
B3: human F-box protein FBP7 (other)
chain: MSNTRFTITLNYKDPLTGDEETLASYGIVSGDLICLILHDDIPPPNIPSSTDSEHSSLQNNEQPSLATSSNQTSIQDEQPSDSFQGQAAQSGVWNDDSMLGPSQNFEAESIQDNAHMAEGTGFYPSEPLLCSESVEGQVPHSLETLYQSADCSDANDALIVLIHLLMLESGYIPQGTEAKALSLPEKWKLSGVYKLQYMHHLCEGSSATLTCVPLGNLIVVNATLKINNEIRSVKRLQLLPESFICKEKLGENVANIYKDLQKLSRLFKDQLVYPLLAFTRQALNLPNVFGLVVLPLELKLRIFRLLDVRSVLSLSAVCRDLFTASNDPLLWRFLYLRDFRDNTVRVQDTDWKELYRKRHIQRKESPKGRFVLLLPSSTHTIPFYPNPLHPRPFPSSRLPPGIIGGEYDQRPTLPYVGDPISSLIPGPGETPSQLPPLRPRFDPVGPLPGPNPILPGRGGPNDRFPFRPSRGRPTDGRLSFM

Key:
[1] = target: human Skp1 (endogenous, HeLa cells) (human, UniProt P63208 2-163); test: HeLa cell extract on peptide beads, RIPA wash, immunoblot
Procedure: (§1) Beads were washed with RIPA buffer and bound proteins were immunoblotted with antibodies to the proteins indicated on the left of each panel. A portion of the HeLa extract (25 μg) was used as a control (lane 4). […] C. […] Beads were washed with RIPA buffer and bound proteins subjected to electrophoresis and autoradiography.
(§2) Proteins stably associated with the beads were examined by immunoblotting.

human Cul1 (endogenous) = target: T5, human Cul1 (endogenous) (human, UniProt Q13616 1-776); test: as above
T5 construct: A slower migrating form is said to be likely modified by a ubiquitin-like molecule
Procedure: as §1, §2

human F-box protein Skp2 = target: T6, human F-box protein Skp2 (human, UniProt Q13309 1-424); test: as above
T6 construct: Used as in vitro translated 35S-Skp2, as endogenous protein of HeLa and IMR90 extracts and as untagged baculovirus protein; also called S-phase kinase-associated protein 2
Procedure: as §1, §2

human F-box protein FBP2 = target: T1, human F-box protein FBP2; test: in vitro translated 35S-FBP on phospho-p27 peptide Sepharose beads, RIPA wash, autoradiography
Procedure: (§3) FIG. 37A-C. […] Beads were washed with RIPA buffer and bound proteins were eluted and subjected to electrophoresis and autoradiography (Upper Panel). Bottom Panel: 10% of the in vitro translated [35S]FBP inputs. […] Beads were washed with RIPA buffer and bound proteins were immunoblotted with antibodies to the proteins indicated on the left of each panel. A portion of the HeLa extract (25 μg) was used as a control (lane 4). […] C. […] Beads were washed with RIPA buffer and bound proteins subjected to electrophoresis and autoradiography.

human F-box protein FBP1 = target: T2, human F-box protein FBP1; test: as above
Procedure: as §3

human F-box protein FBP5 = target: T3, human F-box protein FBP5; test: as above
Procedure: as §3

[2] = target: T4, human F-box protein FBP3a; test: as above
Procedure: as §3

His-tagged Elongin C = His-tagged Elongin C (human, UniProt Q15369 1-112); test: pull-down of in vitro translated 35S-FBP on His-Elongin C Nickel-agarose beads
Procedure: FIG. 29. FBPs interact specifically with Skp1 through their F-box. The cDNAs of FBPs (wild type and mutants) were transcribed and translated in vitro (IVT) in the presence of 35S- methionine. […] Bound IVT proteins were analyzed by SDS-PAGE and autoradiography. The arrows on the left side of the panels point to the indicated FBPs. The apparent molecular weights of the protein standards are indicated on the right side of the panels.
As examples of the human FBP family, a more detailed characterization of some FBPs was performed. To confirm the specificity of interaction between the novel FBPs and human Skp1, eight in vitro translated FBPs were tested for binding to His-tagged-Skp1 pre-bound to Nickel-agarose beads. As a control Elongin C was used, the only known human Skp1 homolog.

[3] = target: B2; test: in vitro translated 35S-FBP on phospho-p27 peptide Sepharose beads, RIPA wash, autoradiography
Procedure: as §3

T5 sequence (Q13616 whole entry): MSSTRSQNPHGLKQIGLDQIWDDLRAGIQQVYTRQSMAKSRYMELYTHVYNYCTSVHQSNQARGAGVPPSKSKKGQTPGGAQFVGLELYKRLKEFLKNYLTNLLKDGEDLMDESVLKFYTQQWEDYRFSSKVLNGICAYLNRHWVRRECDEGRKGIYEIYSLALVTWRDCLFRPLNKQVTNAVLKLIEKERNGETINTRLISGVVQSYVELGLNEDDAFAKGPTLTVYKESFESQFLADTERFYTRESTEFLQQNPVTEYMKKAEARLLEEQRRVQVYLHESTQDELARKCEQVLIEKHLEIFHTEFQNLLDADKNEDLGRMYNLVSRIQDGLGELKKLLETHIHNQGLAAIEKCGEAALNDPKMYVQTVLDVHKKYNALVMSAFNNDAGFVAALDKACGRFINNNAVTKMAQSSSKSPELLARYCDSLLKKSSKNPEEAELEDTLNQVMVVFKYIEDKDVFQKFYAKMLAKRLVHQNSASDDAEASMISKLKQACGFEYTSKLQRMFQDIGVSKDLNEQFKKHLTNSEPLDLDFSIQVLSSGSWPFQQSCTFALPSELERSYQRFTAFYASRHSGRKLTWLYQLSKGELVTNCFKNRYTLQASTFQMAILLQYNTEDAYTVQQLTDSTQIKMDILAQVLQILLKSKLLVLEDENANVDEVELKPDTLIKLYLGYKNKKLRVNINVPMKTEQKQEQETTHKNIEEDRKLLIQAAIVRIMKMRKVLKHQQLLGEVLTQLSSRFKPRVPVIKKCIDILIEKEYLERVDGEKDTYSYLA
Sequence of His-tagged Elongin C (Q15369 whole entry): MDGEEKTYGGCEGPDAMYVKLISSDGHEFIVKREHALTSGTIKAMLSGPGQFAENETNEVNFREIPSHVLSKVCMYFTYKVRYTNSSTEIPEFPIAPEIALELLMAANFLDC
Sequence of human Skp1 (endogenous, HeLa cells) (P63208 2-163 limits assumed): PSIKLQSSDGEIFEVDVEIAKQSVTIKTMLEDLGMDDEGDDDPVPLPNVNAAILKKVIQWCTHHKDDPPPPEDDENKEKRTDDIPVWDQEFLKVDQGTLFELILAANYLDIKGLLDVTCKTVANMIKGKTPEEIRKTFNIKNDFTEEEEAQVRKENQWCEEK
T6 sequence (Q13309 whole entry): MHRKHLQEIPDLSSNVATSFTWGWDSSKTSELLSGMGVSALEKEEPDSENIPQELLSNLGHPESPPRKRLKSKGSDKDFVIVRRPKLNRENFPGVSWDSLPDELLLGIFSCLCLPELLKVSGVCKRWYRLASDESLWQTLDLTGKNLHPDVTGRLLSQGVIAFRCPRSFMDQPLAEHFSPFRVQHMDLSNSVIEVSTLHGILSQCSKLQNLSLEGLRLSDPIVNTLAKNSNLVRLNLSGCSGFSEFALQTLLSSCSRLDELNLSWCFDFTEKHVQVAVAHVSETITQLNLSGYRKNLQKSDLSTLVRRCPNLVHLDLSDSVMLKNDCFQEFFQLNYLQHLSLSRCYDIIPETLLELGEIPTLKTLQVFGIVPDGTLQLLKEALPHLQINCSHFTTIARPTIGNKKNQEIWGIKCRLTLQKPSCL

Binder: B1
binding result [1]: no binding | binding result (human Cul1 (endogenous)): no binding | binding result (human F-box protein Skp2): no binding

Binder: B2
binding result (human F-box protein FBP2): no binding | binding result (human F-box protein FBP1): no binding | binding result (human F-box protein FBP5): no binding | binding result [2]: no binding

Binder: B3
binding result (His-tagged Elongin C): no binding | binding result [3]: no binding
